Source: publication PMC7997880, “MED15 prion-like domain forms a coiled-coil responsible for its amyloid conversion and propagation” (Communications Biology, 2021)

B1: GFP-MED15CC (human MED15 prion-like domain, MED15-PrLD, residues 141-316, fused at the C-terminus of GFP) (domain or fragment)
chain: MAVVSTATPQTQLQLQQVALQQQQQQQQFQQQQQAALQQQQQQQQQQQFQAQQSAMQQQFQAVVQQQQQLQQQQQQQQHLIKLHHQNQQQIQQQQQQLQRIAQLQLQQQQQQQQQQQQQQQQALQAQPPIQQPPMQQPQPPPSQALPQQLQQMHHTQHHQPPPQPQQPPVAQNQPS
notes: Mediator complex subunit 15 (MED15), human, prion-like domain with the Q-rich coiled-coil and Pro-rich regions, residues 141-316; No cleavage step is described; Dimer by SEC, native PAGE and DLS; source: E. coli BL21 Rosetta, pET21b, purified from the soluble fraction (two HisTrap Ni steps, RNase treatment, PD10); not shown: GFP, N-terminal, kept

Columns and labels:
[1] = target: GFP-MED15PP (GFP-MED15CC with five Pro substitutions in the MED15 coiled-coil region); experiment: synchronous light scattering (self-association / aggregation); conditions: 5 μM protein, 9 hours at 37 °C without agitation in 20 mM Tris pH 7.5 and 150 mM NaCl; parent: est. 620; read off a plot
[2] = target: GFP-MED15PP (GFP-MED15CC with five Pro substitutions in the MED15 coiled-coil region); experiment: GFP fluorescence of supernatant fraction (self-association / aggregation); conditions: 5 μM protein, 9 hours at 37 °C without agitation in 20 mM Tris pH 7.5 and 150 mM NaCl; parent: est. 0.50; read off a plot
[3] = target: the molecule itself; experiment: SEC; 2 mg/ml purified protein on Superdex 200 HR 10/30; 20 mM TrisHCl pH 7.4, 150 mM NaCl, 10% glycerol

Row | Molecule | response [1] [a.u.] | other: Normalized GFP fluorescence (supernatant fraction) [2] | stoichiometry N [3]
1 | GFP-MED15CC (human MED15 prion-like domain, MED15-PrLD, residues 141-316, fused at the C-terminus of GFP) MED15PP (five Pro substitutions at heptad 'a' positions; residues not printed in this figure) | 180 | 0.83 | 
2 | B1 |  |  | 2
